assay: soluble on expression in E. coli; label from the status in PepcDB or PDB records

Row | Sequence | soluble on expression in E. coli
1 | MSLRYLLGIDVGTSGTKTALFDECGNTIKTSTHEYELFQPQVGWAEQNPENWWTACVKGIREVIEKSKIDPLDIKGIGISGQMHGLVLIDKEYKVIRNSIIWCDQRTEKECTQITDTIGKEKLIRITGNPALTGFTLSKLLWVRNNEPDNYKRIYKVLLPKDYIRFKLTGVFAAEVSDASGTQMLDINTRNWSEELLDDLRIDKNILPDVYESVVVSGCVIEKASKETKLAVNTPVVGGAGDQAAGAIGNGIVREGLISTVIGTSGVVFAATDTPRFDSKGRVHTLCHAVPNKWHIMGVTQGAGLSLNWFKRTFCAKEILESKEAGINIYDLLTEKASQSKPGSNGIIYLPYLMGERTPHIDPNVKGAFLGISLINNHNDFVRSILEGVGFSLKNCLDIIENMKVNIEEIRVSGGGAESSIWRQILSDIFNYELTTVKASEGPALGVAILAGVGAGIYNSVEEACDKIVKGNEKVMPNANLIEVYSKVYEVYNSAYPKIKDEGHHHHHH | soluble
2 | MATSSSAFDDELPMEEGMPELLDDEDVPSTLPSLLEQNLDTAPKGDEFKLVKRKRKSGNAIDVVMEDVSQVDEDATADTADDSTGPKSSKRTKGVKGESRVVPVPKHRYTPLKDNWVNIFTPIVKNLGLQVRFNLKKRQVEIRNPVDREDTTDLQKATDFVRAFILGFEVNDAIALIRLDHLFLETFEVADVKHSLKGDHVSRAIGRIAGKDGRTKLVIENTTKTRIVVANTKIHILGAYQNLKLARNAVCSLILGSNPSKVYGSLRNMASRGAERL | not soluble
3 | MDHLKHLQQLQNIERIVLSGIVLANHKIEEVHSVLEPSDFYYPPNGLFFEIALKLHEEDCPIDENFIRQKMPKDKQIKEEDLVAIFAASPIDNIEAYVEEIKNASIKRKLFGLANTIREQAHH | soluble
4 | MNNKTEQGNDAVSGQPSIKGQPVLGKDDAPVTVVEFGDYKCPSCKVFNSDIFPKIQKDFIDKGDVKFSFVNVMFHGKGSRLAALASEEVWKEDPDSFWDFHEKLFEKQPDTEQEWVTPGLLGDLAKSTTKIKPETLKENLDKETFASQVEKDSDLNQKMNIQATPTIYVNDKVIKNFADYDEIKETIEKELKGKLEHHHHHH | soluble
5 | MRDPNKWAEVKKTLPLVGAGRSGGRFRHPSARGKLTVQYVNRVRHYYDLLVRLSEKKRSGPSGRGLEHHHHHH | not soluble
6 | MEVFGKSPMVVTSANVIYLSAILGRDCDGHKCDWKCENENVCGNMYRCKLTGLTHVCDKNCNQRILYDNHSSLCRASGRIFPLSSVEEQAVKGVRRKLDAAESHPSESCSFKRRRRDAQFHASPFERSFTAVSPICSPAGDGMELV | not soluble
7 | MSLKVLAITGYKPFELGIFKQDDKALYYIKKAIKNRLIAFLDEGLEWILISGQLGVELWAAEAAYDLQEEYPDLKVAVITPFYEQEKNWKEPNKEQYEAVLAQADYEASLTHRPYESPLQFKQKNQFFIDKSDGLLLLYDPEKEGSPKYMLGTAEKRREQDGYPIYFITMDDLRVTVEEDSYEGHHHHHH | soluble
8 | MSLKEKKLVYLNSKQYEDAYRKKSVLLNDINNINEQYFDLKNSIKDYNKSSKDFESTKRQMEDELILNKMELGTLDVVGEGVEITLDDSGNQVSASSEDANFREIRTIYQVIHDFDMRAVINDIKCSGAEAISINGQRIVSNTEIYCNAEFLLINGVKISAPFNIKAIGNKNKLKTYMLASGNYLQRLKRRSIYVNLKTVNDVKIPAFKGELRHSNIKSKEGHHHHHH | soluble
9 | MLWGRREFVMREEDTVCVGSDGLQYCKVCGEAKEAFFPEGGFMGMKKHSRQCACDRKAYEEEQKYFKDKEHRELVSRNTSICFDESRMEEWTFENADMSDAVMHKAKSYVDNWEEMKRNHIGCLFWGPVGTGKSFIAGCIANELLKQEVTVKMTNFNTIIDDIFPLADKTEYINALASYQLLIIDDLGVERNSEYALGIIFSVIDRRIRSGRPLIITTNLPLNEIKSETMLDKRRIYDRILEMCTPMYVGGASKREAIASMKMEKAKTLLNTNKGEE | not soluble
10 | SLKTKTFKMQLQFLSEQNLEINNNNQLLNQEKITYLQKIEQLKCKLEYQERMIKDSEKIREESFASAKAALFDLGKDLSKQLIEIHKMENNTTRELAEKNIETASQKFNTELERLITMVGALNKDIEQSKGTVDLIKQSLLSPIGAGLLSEITLENILKSSGLRPNLDFIMQYSLTTSDSVKLRPDAIIFLPSGNLMVIDSKASKFLVDSQDNSVHLSKTMNYHLKTLTNKDYAENILTNLNKKTQNFNNVITLMFLPTEQAVEKVIAANPEFLQKAWGCNIFPVGPAGLMNMLSFAKFQITDNRRSENYKVIIEEVRKLLSSIGTIADYSKKIGYNLQNMVTNYDKFAASFNRNVMSRVKSIQKLGIDSGNKIIPATLERYQIVSAKSEIIEVDVENQHK | soluble
11 | MSLKFLLTTAQGIEDIAKREVSLLLKKLGISFQIEEKPLGIEGRLLLEAEKAYYVDEKGRKRELSISTYLNENSRLLHRVIIEIASEKFNGIEKDESEEALKRIKDFVSSLPVEQFVKVSETFAVRSFRKGDHNITSIDIARTVGEAIFERLSRFGTPLVNLDHPAVIFRAELIKDVFFLGIDTTGDSSLHKRPWRVYDHPAHLKASIANAMIELAELDGGSVLDPMCGSGTILIELALRRYSGEIIGIEKYRKHLIGAEMNALAAGVLDKIKFIQGDATQLSQYVDSVDFAISNLPYGLKIGKKSMIPDLYMKFFNELAKVLEKRGVFITTEKKAIEEAIAENGFEIIHHRVIGHGGLMVHLYVVKGIITITTDPNSSSVDKLAAALEHHHHHH | soluble
12 | MKILAISDPHGDYSKMKQIIEKAGDFDLAVVVGDITNFGPDEQVDELAEMFDKPVLAIPGNCDQKTILEALENSKAVNLHGKAEQIGKIRFIGLGGSNPTPFNTPFELSEEEIENALEGMVCSAENSGECGTIVLLTHAPPLGARDELPFGHVGSKAIQKFLDRVDLIVCGHIHEAKGSEKVGKTVVVNPGEACKGSCALIEIEETGNKPIEVEFVEVLEHHHHHH | not soluble
13 | MVPPITSDEFCETSGCFGDSANLHTTLERLKININSDAKKLVDTNGDLKKHQRFLRIAKVTSLRSKDPNTQVGCVIVDKDNCIVSVGYNGFPIGVDDDVFRWDKEDPEDNKHLYVVHAEMNAIINKRCTTLHDCTVYVTLFPCNKCAQMLIQSRVKKVYFLENRDELAFRASKKMLDHARLPYEQIVMPQEAYVIEL | not soluble
14 | MSEDNFDDEFDGSLPSGPRHPMARRFRGYLPVVVDVETGGFNSATDALLEIAATTVGMDEKGFLFPEHTYFFRIEPFEGANIEPAALEFTGIKLDHPLRMAVQEEAALTEIFRGIRKALKANGCKRAILVGHNSSFDLGFLNAAVARTGIKRNPFHPFSSFDTATLAGLAYGQTVLAKACQAAGMEFDNREAHSARYDTEKTAELFCGIVNRWKEMGGWMDDDD | soluble
15 | MGSDKIHHHHHHMQDKVIPSLSAAIAKEVERRTQGVDWCETEIAGLDFYRQSAPTSCSVCVVEPSIALVVQGAKAMTLGEQTFRYDPSRFLITSLDLPAKMQVLEASEEAPYLGVVIKLDLAVMSDLMLQTPLTMQKETASDQGMILGATTPKLLGAISRLVNLLDEPESIAVLAPLIKREIYWRVLMSEQGARLRQIVSAGSHGLRIARTIEWLKVHYDQHLSVDSLADMARMSKSTFHHHFRRLTSMSPLQYQKRLRLLEARRLMLGEDIDASAAAYRVGYESPSQFSREYSRLFGASPKKDVATQWQ | not soluble
16 | MGSDKIHHHHHHMKISERQKDLLKEIGNIGAGNAATAISYMINKKVEISVPNVEIVPISKVIFIAKDPEEIVVGVKMPVTGDIEGSVLLIMGTTVVKKILEILTGRAPDNLLNLDEFSASALREIGNIMCGTYVSALADFLGFKIDTLPPQLVIDMISAIFAEASIEELEDNSEDQIVFVETLLKVEEEEEPLTSYMMMIPKPGYLVKIFERMGIQE | not soluble
17 | MTVKSQQQIIDSFKQANQDQLFQYYDSLTIDQQQEFIDQLSTIEEPAKLISTVEQAIQFSQTNSTSRNFTQLPNEQTASTLDLSKDILQNWTELGLKAIGNGEVAVLLMAGGQGTRLGSSAPKGCFNIELPSQKSLFQIQAEKILKIEQLAQQYLKSTKKPIINWYIMTSGPTRNATESFFIENNYFGLNSHQVIFFNQGTLPCFNLQGNKILLELKNSICQSPDGNGGLYKALKDNGILDDLNSKGIKHIHMYCVDNCLVKVADPIFIGFAIAKKFDLATKVVRKRDANESVGLIVLDQDNQKPCVIEYSEISQELANKKDPQDSSKLFLRAANIVNHYYSVEFLNKMIPKWISSQKYLPFHIAKKKIPSLNLENGEFYKPTEPNGIKLEQFIFDVFPSVELNKFGCLEVDRLDEFSPLKNADGAKNDTPTTCRNHYLERSSKWVIQNGGVIDNQGLVEVDSKTSYGGEGLEFVNGKHFKNGDII | soluble
18 | MGSDKIHHHHHHMNFPELKLSQTERDFNFDFAILEHDLSYFFEKRCLDYALEHINRFNHKIKDNLYNVRPLILKEALISLTCDLASVSFYHYLNMITFVNLRKDILHYLTTTTLTNDDFMPLLESIVNNYFSNLDTLDIPIDGTRLSKQVALVVYYIDNHCDEPLRANTILEELTLDPEYTKRKFRKELGFTINFYIRHAKLQRAKQLLINTHLPIGEIAERINFYNSAEFARQFQKEFDITPSKYRELNQIFYKEE | not soluble
19 | MEHREALIALRTFLSTQILGQEKLIERLLIALLADGHMLVEGAPGLAKTKAIKELAEGIEAQFHRIQFTPDLLPADITGTEIYRPETGSFVFQQGPIFHNLVLADEINRAPAKVQSALLEAMAERQVSVGRSTYDLSPLFLVMATQNPIEQEGTYPLPEAQLDRFLMHVKIGFPDAAVERKILQQARGEALNGETKPERRVSQQAIFAARKEILGLYMADAVEEYLVQLVMATRTPAKFDPELAEWIAYGASPRGSISLDRCARAHAWLAGRDFVSPEDIQAVLFDVLRHRIILSFEAEAAGIDQDRVIQRILDVVAVALEHHHHHH | soluble
20 | MGSDKIHHHHHHNEDNLKIKTIKGDSNELDHININFGYALNGYINSYYTINGSNKTKKTELIKLQKDSKNTNNLIDVSSGSDLIAHVGFEMNEESKDINFVIDEKKEDLEKGVFPSEGSDKEIEYEKLDMNNFTRTRYKVDKSTDDYYAKILASKRYKKYLYVSVLYATSDSSENNKEYSSTIDIIKINPENKKIKTIKSINLSNYFSEKYQNIENIGVSYASKYEDKMYILVNVLNTNIGDNSNSKFHLLEYNLEENKESIMELKTDSKMALAKAKLEANKLYMVMSNDYDNSSITELNLLTYNILDKSLDEDKYVLDNREKRGIRSIEIDSNKIVAYTSRLNSILSWDDKFMLYIINKNSKEIVYEGELQFNSSNSMLEFEIK | not soluble
21 | SLVTVSDVKQYHFCKAIPWINYVMGYREPSTFSMEEGKKISYEEVVKSLNLTTPVKYEVCLSYNGLSGCIDILAGDRKYTVVEVKAFKRGNFSHFRYQLLAYAYLVRKRLGIVERAILVMEGKKVLEIEPTEEHYRYIENVVKKIEEIVNSEKLPAVNVEKCDFCQYRRICPVSVWS | not soluble
22 | MPPEIMRFKERLEEAMNGESSRAFAAKCGLSDGVIRNYLSGKTYPSLDRLAQIAYATGRPIEWFIQSQSMPMVEHKNNQENKNSQPDRSTLKTKLIAIVELLEDKELHSAIELFRKKGFEALMPEIFSSDDSIQADLQGISQQTLQTAKMLESLPTDTRKKILSKYGIYEQEGLVAPSQEPQDVKKAV | not soluble

— the DeepSol protein solubility set
